Literature values as cited in patent US20190275108A1, “COMPOSITIONS IN THE FORM OF AN INJECTABLE AQUEOUS SOLUTION COMPRISING AMYLIN, AN AMYLIN RECEPTOR AGONIST OR AN AMYLIN ANALOGUE AND A CO-POLYAMINO ACID” (ADOCIA, priority 2017, published 2019).
Read-outs that look alike come from different tables or passages of the source.

Substance: amylin: peptide of 37 amino acids, co-stored and co-secreted with insulin (KCNTATCATQRLANFLVHSSNNFGAILSSTNVGSNTY; Islet amyloid polypeptide; UniProt P10997 34-70, looked up)
- Time for which amylin is stable (acidic pH): about fifteen
- Time for which amylin is stable (neutral pH): less than a minute
